The numbers were not newly measured in article PMC4628734, which cites them from elsewhere.

pKd: −log10 of the molar value.

The data set addresses Cdc25C (Homo sapiens) (UniProt P30307).
Chain of UniProt P30307 (P30307 whole entry, looked up): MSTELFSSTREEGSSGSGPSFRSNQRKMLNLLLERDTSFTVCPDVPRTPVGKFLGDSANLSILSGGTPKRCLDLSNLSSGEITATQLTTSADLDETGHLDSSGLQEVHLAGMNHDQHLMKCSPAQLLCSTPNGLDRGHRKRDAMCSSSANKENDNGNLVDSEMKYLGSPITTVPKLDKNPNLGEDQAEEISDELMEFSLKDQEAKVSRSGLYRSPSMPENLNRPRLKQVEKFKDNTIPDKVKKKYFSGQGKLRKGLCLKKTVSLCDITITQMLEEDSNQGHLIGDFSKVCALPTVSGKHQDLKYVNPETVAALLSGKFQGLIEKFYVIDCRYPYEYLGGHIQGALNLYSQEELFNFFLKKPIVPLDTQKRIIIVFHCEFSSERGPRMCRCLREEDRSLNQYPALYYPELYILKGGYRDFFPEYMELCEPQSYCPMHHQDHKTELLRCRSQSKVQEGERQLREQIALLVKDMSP

With PLK-1 PBD (from UniProt P53350), the negative logarithm of the Kd (pKd) is 5.74.
